# Test results published in patent publication US12616711B2, “Therapeutic dendrimer” (Starpharma Pty Ltd, priority 2019, dated 2026).
# Legend:
# [1] = system: OVCAR-3 (human Ovarian Carcinoma cell line) mouse xenograft; assay: OVCAR-3 mouse xenograft, alone or with Carboplatin (Example 16); type: in vivo; conditions: 3 at 4 mg/kg and 6 mg/kg weekly; Carboplatin 40 mg/kg weekly in combination; 3 weeks i.v.
# Protocol: An OVCAR-3 (human Ovarian Carcinoma cell line) mouse xenograft cancer model was used to assess the anti-tumour efficacy properties of 3 alone or in combination with Carboplatin, compared to Gemcitabine, alone or in combination with Carboplatin. NSG Mice were inoculated and tumours sized as described above. On day twenty nine after implantation, mice with similar sized tumours (mean tumour volume 100 mm^3) were randomised into 10 groups of 10 animals. Gemcitabine and 3 were prepared as described above. DBLCarboplatin (Hospira) was dissolved in saline solution and further diluted in 5% glucose immediately prior to dosing.
# Gemcitabine was administered twice weekly and dendrimers and carboplatin were administered weekly for 3 weeks via tail vein i.v. injection, at 0.1 ml/10 g body weight.
# [2] = Gemcitabine release from dendrimers in PBS; type: physicochemical; conditions: PBS pH 7.4, 37° C.
# Protocol: (§1) A study was carried out to determine the rate of gemcitabine release from dendrimer compounds in PBS and citrate buffer. Gemcitabine-conjugated dendrimers of the present disclosure, and a comparative example dendrimer, were each dissolved in PBS Buffer (2 mL, 10 mM, pH 7.4) or Citrate Buffer (2 mL, 0.1 M, pH 4.5) and held at 37° C. Samples were then analysed by injecting 5 μL of the solution on HPLC. At various time points, samples were analysed by HPLC. HPLC (C8 XBridge, 3×100 mm), gradient: 5% ACN/H2O (0-1 min), 5-80% ACN (1-7 min), 80% ACN (7-12 min), 80-5% ACN (12-13 min), 5% ACN (13-15 min), 243 nm, 10 mM ammonium formate buffer, 0.4 mL/min.
# [3] = system: H460 cells; assay: alamarBlue viability assay, GI50; type: cell-based; conditions: 72 h, given in μM Gemcitabine
# Protocol: (§2) A study was carried out to determine the ability of example dendrimers to inhibit growth of cancer cell lines using an alamarBlue viability assay (Thermo Fisher, DAL1025).
# (§3) The cytotoxicity of compounds toward MDA-MB-231, A549, H460, BxPC3 and CAPAN-1 cells were evaluated for viability. Cells were seeded at a density of 1.2-5×10^3 cells, dependent on cell growth rate, in 96 well plates and incubated overnight. Cells were then treated with serial dilutions of test compositions for 72 h (MDA-MB-231, A549 and H460 lines) or 144 h (BxPC3 and CAPAN-1 lines). For cell viability analysis, 10% media volume of alamar Blue was added during the final 6-8 h of incubation. Reduction of alamarBlue in living cells yields a red fluorescent metabolite that can be read on a plate reader (560 nm excitation/610 nm emission.). Cell viability and subsequent GI50 values were was determined from the blank corrected dose-response curves, with 4-parameter nonlinear curve fit, in GraphPad Prism.
# [4] = system: BxPC3 cells; assay: alamarBlue viability assay, GI50; type: cell-based; conditions: BxPC-3; 144 h; given in μM Gemcitabine
# Protocol: as §2, §3
# [5] = Plasma release study; type: in vitro ADME; conditions: 37° C.
# Protocol: The plasma was placed in a CO2 incubator at 3% CO2 at 42% relative humidity to reach a pH of 7.4.
# Gemcitabine HCl (28.5 mg) was dissolved in Milli Q water and the resulting stock solution transferred to a 5 mL volumetric flask and diluted to provide working standard solutions.
# The plasma release study was conducted by adding 1 mL of plasma (centrifuged and filtered) to 0.2 mL of dendrimer solution (approximately 2 mg/mL gemcitabine equivalent in miliQ water) for example dendrimers and a comparator. The mixtures were vortexed (30 sec) then incubated at 37° C. 5% CO2. At various timepoints aliquots (0.1 mL) were removed and added to ACN (0.2 mL). The resulting mixtures were vortexed (30 s), centrifuged (10 min, 4° C.), filtered and analysed by HPLC (C8 Xbridge, 3×100 mm, […], 0.4 mL/min., gradient: 5% ACN/H2O) (0-1 min), 5-80% ACN (1-7 min), 80% ACN (7-12 min), 80-5% ACN (12-13 min), 5% ACN (13-15 min), 100 mM ammonium formate buffer, column temperature 50° C., sample tray 4° C., 260 nm.
# [6] = system: CAPAN-1 tumour xenografts; assay: CAPAN-1 mouse xenograft, alone or with Abraxane or DEP-DTX (Examples 13a, 13b); type: in vivo
# Protocol: Mice were inoculated and tumours sized as described above. On day nineteen after implantation, mice with similar sized tumours (mean tumour volume 100 mm^3) were randomised into 7 groups of 10 animals. […] Abraxane® was dissolved in saline solution immediately prior to dosing.
# Abraxane®, gemcitabine and dendrimers were administered at days 1, 10, and 17 via tail vein i.v. injection, at 0.1 ml/10 g body weight.
# In an extension of Example 13a, two additional groups of mice were prepared and dosed to assess the anti-tumour efficacy properties of a taxane-dendrimer combined with a nucleoside analogue-dendrimer (e.g. 6). Mice were inoculated and tumours sized as described above.
# Dendrimers were administered weekly via tail vein i.v. injection, at 0.1 ml/10 g body weight for 3 weeks.
# All statistical analyses were performed using GraphPad Prism 8.1.
# [7] = system: A549 cells; assay: alamarBlue viability assay, GI50; type: cell-based, human; conditions: 72 h, given in μM Gemcitabine
# Protocol: as §2, §3
# [8] = system: CAPAN-1 cells; assay: alamarBlue viability assay, GI50; type: cell-based, human; conditions: 144 h, given in μM Gemcitabine
# Protocol: as §2, §3
# [9] = Gemcitabine release from dendrimers in citrate buffer; type: physicochemical; conditions: Citrate Buffer pH 4.5, 37° C.
# Protocol: as §1
substance,measurement,setting,value
"[BHA Lys][Lys]30[Lys]32 [Compound 3, [BHA Lys][Lys]30[Lys]32 [(α-NH-TDA-Gemcitabine)32 (ε-NHPEG˜2100)32]]",anti-tumour efficacy compared to other groups (FIG. 9),[1],more effective than Gemcitabine
same,% Gemcitabine released in PBS,[2]; 0 h,0%
same,% Gemcitabine released in PBS,[2]; 0.08 h,3.95%
same,% Gemcitabine released in PBS,[2]; 2 h,11.23%
same,% Gemcitabine released in PBS,[2]; 4 h,16.6%
same,% Gemcitabine released in PBS,[2]; 6 h,21.99%
same,% Gemcitabine released in PBS,[2]; 8 h,25.64%
same,% Gemcitabine released in PBS,[2]; 10 h,30.03%
same,% Gemcitabine released in PBS,[2]; 12 h,33.17%
same,% Gemcitabine released in PBS,[2]; 24 h,46.36%
same,% Gemcitabine released in PBS,[2]; 26 h,48.07%
same,% Gemcitabine released in PBS,[2]; 28 h,51.24%
same,% Gemcitabine released in PBS,[2]; 30 h,53.41%
same,% Gemcitabine released in PBS,[2]; 32 h,54.48%
same,% Gemcitabine released in PBS,[2]; 34 h,55.8%
same,% Gemcitabine released in PBS,[2]; 36 h,57.52%
same,GI50,[3],0.077 µM
same,GI50,[4],0.008 µM
same,Human Plasma % release,[5]; 0 h,1.81%
same,Human Plasma % release,[5]; 2 h,3.73%
same,Human Plasma % release,[5]; 4 h,6.31%
same,Human Plasma % release,[5]; 6 h,17.74%
same,Human Plasma % release,[5]; 24 h,34.83%
same,Human Plasma % release,[5]; 30 h,37.86%
same,anti-tumour efficacy compared to other groups at day 29,[6]; day 29,significantly more effective than Gemcitabine
same,Tumour Growth inhibition (%) v vehicle at day 29,"[6]; day 29, i.v., Gemcitabine 120, Abraxane 40, 3 at 6.5, 6 at 5 (day 1) then 4, DEP-DTX 24 (10 in combination) mg/kg",103%
same,anti-tumour efficacy compared to other groups over the dosing study (FIG. 6),[6]; out to day 82,more effective than Gemcitabine and also more effective than the combination of gemcitabine and Abraxane®
same,GI50,[7],0.05 µM
same,GI50,[8],0.008 µM
same,% Gemcitabine released in citrate buffer,[9]; 0 h,0%
same,% Gemcitabine released in citrate buffer,[9]; 0.08 h,4.42%
same,% Gemcitabine released in citrate buffer,[9]; 2 h,5.21%
same,% Gemcitabine released in citrate buffer,[9]; 4 h,5.51%
same,% Gemcitabine released in citrate buffer,[9]; 6 h,4.92%
same,% Gemcitabine released in citrate buffer,[9]; 8 h,5.61%
same,% Gemcitabine released in citrate buffer,[9]; 10 h,5.39%
same,% Gemcitabine released in citrate buffer,[9]; 12 h,5.94%
same,% Gemcitabine released in citrate buffer,[9]; 24 h,7.53%
same,% Gemcitabine released in citrate buffer,[9]; 26 h,7.52%
same,% Gemcitabine released in citrate buffer,[9]; 28 h,7.75%
same,% Gemcitabine released in citrate buffer,[9]; 30 h,7.71%
same,% Gemcitabine released in citrate buffer,[9]; 32 h,7.48%
same,% Gemcitabine released in citrate buffer,[9]; 34 h,7.72%
same,% Gemcitabine released in citrate buffer,[9]; 36 h,8.19%
